Measured values published in patent publication US20230105982A1, “INSULIN-INCRETIN CONJUGATES” (Merck Sharp & Dohme Corp., priority 2021, published 2023).

Legend:
[1] = biological target: human insulin receptor (pAkt assay, CHO cells overexpressing human IR) (human) (UniProt P06213); test: cell-based or functional assay
[2] = biological target: minipig insulin receptor (minipig); test: cell-based or functional assay

Insulin Receptor pAK Assay EC50 [1]: 0.51 nM
Insulin Receptor pAK Assay EC50 [2]: 0.5 nM
Substance: Insulin levemir (ligand)
